Source: publication PMC4125281, “Capsid Protein VP4 of Human Rhinovirus Induces Membrane Permeability by the Formation of a Size-Selective Multimeric Pore” (PLoS Pathogens, 2014)
*: point of attachment. Myristoyl = CCCCCCCCCCCCCC(=O)*

What was measured:
[1] = target: the molecule itself; test: cross-linking; VP4His incubated with liposomes (50 uM lipid) at 25 C for 1 hr, DSP 0.5 mM or 1 mM for 20 min at 25 C; non-reducing SDS-PAGE, western blot with antisera to VP4; cross-linking reversed with 50 mM DTT in some samples
[2] = target: the molecule itself; test: SDS-PAGE without cross-linking (multimers that survive SDS); VP4His incubated with liposomes, no DSP (Fig. 5B lane 5); non-reducing SDS-PAGE, western blot with antisera to VP4

B1: recombinant myristoylated human rhinovirus 16 VP4 with six histidines at the C-terminus (VP4His) (natural protein)
chain: Myristoyl-MGAQVSRQNVGTHSTQNMVSNGSSLNYFNINYFKDAASSGASRLDFSQDPSKFTDPVKDVLEKGIPTLQ-{H2N-H2N-H2N-H2N-H2N-H2N}
notes: capsid protein VP4 of human rhinovirus 16 (HRV16), the cut product VP4 of the genome polyprotein; native VP4 about 7.4 kDa, VP4His about 8.2 kDa; Plasmid pETVP4His (pET23d); also called recombinant VP4; not shown: His6, C-terminal, kept
stoichiometry N [1]: 6 | stoichiometry N [2]: 2
